Measured values reported in publication PMC3025549.

Molecular target: recombinant mjRNAP (RNA polymerase of M. jannaschii), wild type (M. jannaschii) (UniProt Q58445)
Test: native gel or EMSA

recruitment activity relative to wild type (% of wild type): 140
B1: mjTFIIB K87-A (natural protein)
chain: MVWLMEALKTKENETTKEKKLTTKVEKSEKKEENVREEEIVCPICGSKEVVKDYERAEIVCAKCGCVIKEKLFDIGPEWRAFDHEQAIKRCRVGAPMTYSVDYNEPIIIKENGEIKVVKIGELIDKIIENSENIRREGILEIAKCKGIEVIAFNSNYKFKFMPVSEVSRHPVSEMFEIVVEGNKKVRVTRSHSVFTIRDNEVVPIRVDELKVGDILVLAKELPNIEEDIEIDKKFSKILGYIIAEGYYDDKKIVLSYDYNEKEFINETIDYFKSLNSDITIYSKDLNIQIEVKNKKIINLLKKLRVKNKRIPSIIFKSPYEIKKSFIDGIFNGKDAKVFVSKELAEDVIFLLLQIKENATINKKSINDIEVYEVRRITNIYTNRKLEKLINSDFIFLKIKEINKVEPTSGYAYDLTVPNAENFVAGFGGFVLHNTIHDKGLSTVIDWRNKDSYGKDLSANKRAQLYRLRKWQRRIRVSDAAERNLAFALSELDRITSKLGLPRHVRENAAIIYRGAVEKGLIRGRSIEGVVAAAIYAACRRCRVPRTLDEIAEASRVDRKEIGRTYRFLARELNIKLTPTNPIDYVPRFASELGLPGEVESKAIQILQQAAEKGLTSGRGPTGVAAAAIYIASVLLGCRRTQREVAEVAGVTEVTIRNRYKELTEHLDIDVTL
